Here are results for one substance from patent publication US20200172619A1.

Test [1] concerns the target human TNFR1-Fc fusion protein (human) (UniProt P19438). The test is described as follows: ELISA, immobilized human TNFR1-Fc. For orientation: An ELISA detects its analyte on a solid surface through an enzyme-linked reagent.
Test [2] concerns the target TNFR1 on the surface of cells (HT1080, HeLa, Kym-1) (human) (UniProt P19438). The experiment in a line: cell-based or functional assay.
Test [3] concerns the target human TNFR1-Fc fusion protein (human) (UniProt P19438). The experiment in a line: ELISA, human TNFR1-Fc.
Test [4] concerns the target TNFR1 on the surface of cells (HT1080, HeLa, Kym-1) (human) (UniProt P19438). The experiment in a line: cell-based or functional assay. The source holds these as a separate data set.

pEC50: −log10 of the molar value. Like-named read-outs stand apart in the source and are kept apart here.

TNFR1 on the surface of cells (HT1080, HeLa, Kym-1) (human), sequence (P19438 30-455): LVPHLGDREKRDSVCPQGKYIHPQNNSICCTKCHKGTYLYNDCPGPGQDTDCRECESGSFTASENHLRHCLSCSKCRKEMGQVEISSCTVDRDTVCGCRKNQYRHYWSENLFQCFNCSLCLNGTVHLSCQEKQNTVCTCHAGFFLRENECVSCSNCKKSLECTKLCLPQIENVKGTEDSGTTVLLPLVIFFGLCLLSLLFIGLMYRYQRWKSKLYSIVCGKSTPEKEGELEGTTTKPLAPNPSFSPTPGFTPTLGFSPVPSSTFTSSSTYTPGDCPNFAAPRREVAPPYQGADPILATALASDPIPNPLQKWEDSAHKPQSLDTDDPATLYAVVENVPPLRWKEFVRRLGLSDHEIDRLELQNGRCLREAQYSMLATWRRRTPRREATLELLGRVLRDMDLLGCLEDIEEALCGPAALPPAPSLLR
human TNFR1-Fc fusion protein (human), sequence (P19438 30-211): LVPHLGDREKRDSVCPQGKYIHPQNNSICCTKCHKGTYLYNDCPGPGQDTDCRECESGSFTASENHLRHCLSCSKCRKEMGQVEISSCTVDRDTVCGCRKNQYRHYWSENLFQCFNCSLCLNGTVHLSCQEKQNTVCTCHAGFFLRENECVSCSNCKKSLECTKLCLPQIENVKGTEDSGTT

As to ATROSAB (antibody), in test [1], the pEC50 (in general, the EC50 on a negative log10 scale, so that one unit is a factor of ten) was 9.40. This substance came in with an IL-8 Inhibition IC50 in test [2] of 136 nM. In test [3], this substance gave a negative-log EC50 (pEC50) of 10.05. Further, in test [4], the IC50, Cell death induction [nM] (Kym-1 cells, 0.01 nM TNF) turned out to be 64.4 nM; the IC50, IL-6 [nM] (HeLa cells, 0.1 nM TNF) was 165 nM; the IC50, IL-8 [nM] (HT1080 cells, 0.1 nM TNF) amounted to 84.1 nM; the IL-8 Inhibition IC50 worked out at 97.8 nM.
